Among the data in article PMC5519370 are stoichiometry N values, retold here.

The assay deals with TgSPT1 Δ158 (Toxoplasma gondii serine palmitoyltransferase 1 with an N-terminal deletion of 158 amino acids) (Toxoplasma gondii). In words: SAXS (small-angle X-ray scattering); size exclusion chromatography HPLC mode, Beamline B21 Diamond Light Source; sample concentrated to ~5 mg/ml; Porod volume 150387 Å^3 equivalent to 94 kDa; ab initio envelope compared with a homodimeric homology model.

For the substance “TgSPT1 Δ158 (Toxoplasma gondii serine palmitoyltransferase 1 with an N-terminal deletion of 158 amino acids) (enzyme)”, the stoichiometry N is 2.

As a reminder, the stoichiometry N is a count of units in the complex or per binding partner.
